# Data published in patent US20240093191A1, “COMPOSITIONS AND METHODS FOR TREATING DISEASE ASSOCIATED WITH DUX4 OVEREXPRESSION” (RESEARCH INSTITUTE AT NATIONWIDE CHILDREN'S HOSPITAL, priority 2021, published 2024).
# System: mir-675R (reverse complementary sequence of mir-675-5p)
# Assay: Dual-luciferase assay with mir-675 perfect target site (mir-675R) as Renilla 3'UTR
# Format: cell-based, human
# Conditions: mir-675R perfect target site; normalized to milacZ
# From the text: The QPCR was done using the Taqman probes designed to recognize the mature sequence of mir-675-5p and -3p. mir-675-3p expression was 2.20±0.15-fold higher than that of mir-675-5p (P<0.0001, ANOVA, N=3). Gene expression was normalized to the housekeeping gene RPL13A. Results were reported as the average relative gene expression±SEM of three replicates (N=3). […] The miRNA (pmoles) was used at 40-fold of the RenLuc-DUX4-FL (pmoles). When testing the U6.mir-675-3p construct, the relative Renilla luciferase kept on average 95% (P<0.2, ANOVA) of its activity, even though U6.mir-675-3p expressed high levels of mir-675-3p relative to the negative control mir-675-5p levels. On the other hand, U6.mir-675-5p was able to reduce the relative Renilla luciferase activity on average by 33±3% (P<0.0001, ANOVA, N=3). All readings were normalized to the milacZ negative control. Results were reported as the average relative Renilla luciferase activity±SEM of three replicates (N=3). […] This sequence was cloned as a 3′UTR downstream the Renilla luciferase gene. […] All readings were normalized to the milacZ negative control. […]
# Dual Luciferase Assay. […] Luciferase activity was measured 24h or 48h after transfection. DUX4 gene silencing was determined as previously described [Wallace et al., Mol. Ther. Methods Clin. Dev. […]
molecule,measurement,value
U6.mir-675: U6 promoter-driven mir-675 expression plasmid with 40 nt 5' and 47 nt 3' flanking sequences (nucleic acid) DNA: GACGCCGCCATCTCTAGGCCCGCGCCGGCCCCCTCGCACAGACTTGTGGGAGAAGCTCGGCTACTCCCCTGCCCCGGTTAATTTGCATATAATATTTCCTAGTAACTATAGAGGCTTAATGTGCGATAAAAGACAGATAATCTGTTCTTTTTAATACTAGCTACATTTTACATGATAGGCTTGGATTTCTATAAGAGATACAAATACTAAATTATTATTTTAAAAAACAGCACAAAAGGAAACTCACCCTAACTGTAAAGTAATTGTGTGTTTTGAGACTATAAATATCCCTTGGAGAAAAGCCTTGTTTGCGTTTAGTGAACCGTCAGATGGTACCGTTTAAACTCGAGCCCAGGGTCTGGTGCGGAGAGGGCCCACAGTGGACTTGGTGACGCTGTATGCCCTCACCGCTCAGCCCCTGGGACTAGAGCGGCCGCCACAGCGGGGAGATCCAGACATGATAAGATACATTTTTT,reduction of relative Renilla luciferase activity (maximum inhibition),41±12%
